Experimental data: patent US20240124585A1 (SUTRO BIOPHARMA, published 2024)

Assays:
[1] = target: T1, EpCAM on NCI-H1975 cells (UniProt P16422 24-314, limits assumed); experiment: cell-based or functional assay
T1 sequence (looked up): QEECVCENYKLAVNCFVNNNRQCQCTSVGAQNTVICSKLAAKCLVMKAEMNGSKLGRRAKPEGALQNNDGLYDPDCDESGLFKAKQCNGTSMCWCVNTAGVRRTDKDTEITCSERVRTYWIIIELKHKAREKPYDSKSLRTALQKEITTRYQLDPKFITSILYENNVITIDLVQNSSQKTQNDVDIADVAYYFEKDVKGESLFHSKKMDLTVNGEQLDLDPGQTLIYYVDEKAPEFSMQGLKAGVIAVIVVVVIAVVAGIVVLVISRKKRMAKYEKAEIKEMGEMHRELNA

[2] = target: T1, EpCAM on NCI-H1975 cells; experiment: cell-based or functional assay; remark: listed apart in the source

B1: aEpCAM × hOKT3 (MT110/AMG110) (bispecific antibody)
chain: MELVMTQSPSSLTVTAGEKVTMSCKSSQSLLNSGNQKNYLTWYQQKPGQPPKLLIYWASTRESGVPDRFTGSGSGTDFTLTISSVQAEDLAVYYCQNDYSYPLTFGAGTKLEIKGGGGSGGGGSGGGGSEVQLLEQSGAELVRPGTSVKISCKASGYAFTNYWLGWVKQRPGHGLEWIGDIFPGSGNIHYNEKFKGKATLTADKSSSTAYMQLSSLTFEDSAVYFCARLRNWDEPMDYWGQGTTVTVSSGGGGSDVQLVQSGAEVKKPGASVKVSCKASGYTFTRYTMHWVRQAPGQGLEWIGYINPSRGYTNYADSVKGRFTITTDKSTSTAYMELSSLRSEDTATYYCARYYDDHYCLDYWGQGTTVTVSSGEGTSTGSGGSGGSGGADDIVLTQSPATLSLSPGERATLSCRASQSVSYMNWYQQKPGKAPKRWIYDTSKVASGVPARFSGSGSGTDYSLTINSLEAEDAATYYCQQWSSNPLTFGGGTKVEIK
Cell killing Donor #1 EC50 (pM) [1]: 8.2 pM
Cell killing Donor #2 EC50 (pM) [1]: 4.1 pM
T-cell mediated H1975 killing, EC50 (pM) Donor 1 [2]: 8 pM
T-cell mediated H1975 killing, EC50 (pM) Donor 2 [2]: 4 pM
